Test results: US20040131610A1

Biological target: Fc gamma receptor (Fc(γ)R) on dendritic cells
Experiment: cell-based or functional assay

With monoclonal antibody 3G4 (ATCC PTA 4545) the DC uptake of apoptotic tumor cells was 300%.
